Reference: PMC4137731

How the values were obtained:
[1] = target: KpSSBnPaSSBc (K. pneumoniae subsp. pneumoniae MGH 78578 | P. aeruginosa PAO1) (UniProt A6TGW7); assay: SEC; purified protein (2 mg/mL) on Superdex 200 HR 10/30 in Buffer D (20 mM potassium phosphate, 1 mM EDTA, 100 mM NaCl, pH 7.0), 0.5 mL/min; calibrated with proteins of known molecular weight; oligomeric state from the native mass against the monomer mass
[2] = target: KpSSBnStSSBc (K. pneumoniae subsp. pneumoniae MGH 78578 | S. enterica serovar Typhimurium LT2) (UniProt A6TGW7); assay: as above

KpSSBnPaSSBc (from UniProt A6TGW7 1-91; P40947 91-165)
stoichiometry N [1]: 4

KpSSBnStSSBc (from UniProt A6TGW7 1-91; P0A2F6 92-176)
stoichiometry N [2]: 4
